Kd data for 36 molecules are collected here from paper PMC10786891, “Massively parallel profiling of RNA-targeting CRISPR-Cas13d”.

T1: EsCas13d, nuclease-dead (Eubacterium siraeum, UniProt B0MS50, R295A;H300A;R849A;H854A)
T1 sequence: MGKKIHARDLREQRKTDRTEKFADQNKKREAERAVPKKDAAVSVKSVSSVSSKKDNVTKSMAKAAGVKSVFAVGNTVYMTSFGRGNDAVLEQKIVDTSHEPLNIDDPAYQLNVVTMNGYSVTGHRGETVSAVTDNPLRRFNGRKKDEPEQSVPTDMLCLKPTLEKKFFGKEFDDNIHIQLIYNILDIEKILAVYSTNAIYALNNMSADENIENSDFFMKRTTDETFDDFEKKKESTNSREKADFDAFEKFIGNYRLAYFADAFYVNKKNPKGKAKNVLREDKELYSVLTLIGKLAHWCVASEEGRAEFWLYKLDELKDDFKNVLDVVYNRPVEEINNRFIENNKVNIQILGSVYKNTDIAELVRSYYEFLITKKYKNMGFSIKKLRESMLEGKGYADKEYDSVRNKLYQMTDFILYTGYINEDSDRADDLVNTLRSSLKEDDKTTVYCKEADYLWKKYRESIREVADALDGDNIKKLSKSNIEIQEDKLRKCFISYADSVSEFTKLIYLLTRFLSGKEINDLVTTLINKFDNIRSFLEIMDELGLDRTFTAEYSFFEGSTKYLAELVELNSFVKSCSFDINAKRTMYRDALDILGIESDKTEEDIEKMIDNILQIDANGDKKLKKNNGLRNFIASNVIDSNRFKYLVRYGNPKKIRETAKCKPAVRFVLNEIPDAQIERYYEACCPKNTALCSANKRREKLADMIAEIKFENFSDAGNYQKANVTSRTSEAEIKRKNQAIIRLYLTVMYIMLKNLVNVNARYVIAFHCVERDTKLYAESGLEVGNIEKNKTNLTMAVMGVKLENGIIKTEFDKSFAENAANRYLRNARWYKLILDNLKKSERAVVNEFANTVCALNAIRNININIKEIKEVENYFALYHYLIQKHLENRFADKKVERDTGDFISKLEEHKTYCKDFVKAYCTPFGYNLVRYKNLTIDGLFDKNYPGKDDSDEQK

B1: target 1 G13A (mixed)
RNA 1: CACCCGUGCAAAAAUGCAGGGGUCUAAAACUGAGCGGAUAACCUCUCUAUGG
RNA 2: GGGAAUGGAUCCACAUCUACGAAUUCGUACCAUAGAGAAGUUAUCCGCUCACCGAGAUCGGAAGAGCACACGU
B2: target 1 A1C,G13A (mixed)
RNA 1: B1 RNA 1
RNA 2: B1 RNA 2 with A51C
B3: target 1 A16C,C21A (mixed)
RNA 1: B1 RNA 1
RNA 2: B1 RNA 2 with C31A, A36C, A39G
B4: target 1 A18U,C22A (mixed)
RNA 1: B1 RNA 1
RNA 2: B1 RNA 2 with C30A, A34U, A39G
B5: target 2 MT 5'PFS UGA 3'PFS UCG (mixed)
RNA 1: CACCCGUGCAAAAUUGCAGGGGUCUAAAACCUUCUCCAAAUUGUUUCAUCCU
RNA 2: GGGAAUGGAUCCACAUCUACGAAUUCUGAAGGAUGAAACAAUUUGGAGAAGUCGAGAUCGGAAGAGCACACGU
B6: target 2 MT 5'PFS GAU 3'PFS CAC (mixed)
RNA 1: B5 RNA 1
RNA 2: B5 RNA 2 with U27G, G28A, A29U, U52C, C53A, G54C
B7: target 2 MT 5'PFS AAC 3'PFS UUG (mixed)
RNA 1: B5 RNA 1
RNA 2: B5 RNA 2 with U27A, G28A, A29C, C53U
B8: target 2 MT 5'PFS GAU 3'PFS CAU (mixed)
RNA 1: B5 RNA 1
RNA 2: B5 RNA 2 with U27G, G28A, A29U, U52C, C53A, G54U
B9: target 2 MT 5'PFS CCU 3'PFS UCU (mixed)
RNA 1: B5 RNA 1
RNA 2: B5 RNA 2 with U27C, G28C, A29U, G54U
B10: target 2 MT 5'PFS UGA 3'PFS UCA (mixed)
RNA 1: B5 RNA 1
RNA 2: B5 RNA 2 with G54A
B11: target 2 MT 5'PFS AAC 3'PFS AUC (mixed)
RNA 1: B5 RNA 1
RNA 2: B5 RNA 2 with U27A, G28A, A29C, U52A, C53U, G54C
B12: target 2 MT 5'PFS GGU 3'PFS UCG (mixed)
RNA 1: B5 RNA 1
RNA 2: B5 RNA 2 with U27G, A29U
B13: target 2 MT 5'PFS CGC 3'PFS CAA (mixed)
RNA 1: B5 RNA 1
RNA 2: B5 RNA 2 with U27C, A29C, U52C, C53A, G54A
B14: target 2 MT 5'PFS GGU 3'PFS UCC (mixed)
RNA 1: B5 RNA 1
RNA 2: B5 RNA 2 with U27G, A29U, G54C
B15: target 2 MT 5'PFS GAU 3'PFS CAA (mixed)
RNA 1: B5 RNA 1
RNA 2: B5 RNA 2 with U27G, G28A, A29U, U52C, C53A, G54A
B16: target 2 MT 5'PFS CAG 3'PFS CUC (mixed)
RNA 1: B5 RNA 1
RNA 2: B5 RNA 2 with U27C, G28A, A29G, U52C, C53U, G54C
B17: target 2 MT 5'PFS UGA 3'PFS UCC (mixed)
RNA 1: B5 RNA 1
RNA 2: B5 RNA 2 with G54C
B18: target 2 MT 5'PFS CGC 3'PFS CAG (mixed)
RNA 1: B5 RNA 1
RNA 2: B5 RNA 2 with U27C, A29C, U52C, C53A
B19: target 2 MT 5'PFS UCG 3'PFS AGG (mixed)
RNA 1: B5 RNA 1
RNA 2: B5 RNA 2 with G28C, A29G, U52A, C53G
B20: target 2 MT 5'PFS CAG 3'PFS CUG (mixed)
RNA 1: B5 RNA 1
RNA 2: B5 RNA 2 with U27C, G28A, A29G, U52C, C53U
B21: target 2 MT 5'PFS UAC 3'PFS CCA (mixed)
RNA 1: B5 RNA 1
RNA 2: B5 RNA 2 with G28A, A29C, U52C, G54A
B22: target 2 MT 5'PFS GAU 3'PFS CAG (mixed)
RNA 1: B5 RNA 1
RNA 2: B5 RNA 2 with U27G, G28A, A29U, U52C, C53A
B23: target 2 MT 5'PFS AAC 3'PFS AUU (mixed)
RNA 1: B5 RNA 1
RNA 2: B5 RNA 2 with U27A, G28A, A29C, U52A, C53U, G54U
B24: target 2 MT 5'PFS CGC 3'PFS CAC (mixed)
RNA 1: B5 RNA 1
RNA 2: B5 RNA 2 with U27C, A29C, U52C, C53A, G54C
B25: target 2 MT 5'PFS GAU 3'PFS ACU (mixed)
RNA 1: B5 RNA 1
RNA 2: B5 RNA 2 with U27G, G28A, A29U, U52A, G54U
B26: target 2 MT 5'PFS GGU 3'PFS AUC (mixed)
RNA 1: B5 RNA 1
RNA 2: B5 RNA 2 with U27G, A29U, U52A, C53U, G54C
B27: target 2 MT 5'PFS UCG 3'PFS AGA (mixed)
RNA 1: B5 RNA 1
RNA 2: B5 RNA 2 with G28C, A29G, U52A, C53G, G54A
B28: target 2 MT 5'PFS CGC 3'PFS CAU (mixed)
RNA 1: B5 RNA 1
RNA 2: B5 RNA 2 with U27C, A29C, U52C, C53A, G54U
B29: target 2 MT 5'PFS GGU 3'PFS AUG (mixed)
RNA 1: B5 RNA 1
RNA 2: B5 RNA 2 with U27G, A29U, U52A, C53U
B30: target 2 MT 5'PFS AAC 3'PFS AUA (mixed)
RNA 1: B5 RNA 1
RNA 2: B5 RNA 2 with U27A, G28A, A29C, U52A, C53U, G54A
B31: target 2 MT 5'PFS UAC 3'PFS CCC (mixed)
RNA 1: B5 RNA 1
RNA 2: B5 RNA 2 with G28A, A29C, U52C, G54C
B32: target 2 MT 5'PFS GGU 3'PFS AUU (mixed)
RNA 1: B5 RNA 1
RNA 2: B5 RNA 2 with U27G, A29U, U52A, C53U, G54U
B33: target 2 MT 5'PFS GGU 3'PFS AUA (mixed)
RNA 1: B5 RNA 1
RNA 2: B5 RNA 2 with U27G, A29U, U52A, C53U, G54A
B34: target 2 MT 5'PFS CUA 3'PFS CCA (mixed)
RNA 1: B5 RNA 1
RNA 2: B5 RNA 2 with U27C, G28U, U52C, G54A
B35: target 2 MT 5'PFS UAC 3'PFS CCG (mixed)
RNA 1: B5 RNA 1
RNA 2: B5 RNA 2 with G28A, A29C, U52C
B36: target 2 MT 5'PFS GGU 3'PFS UCU (mixed)
RNA 1: B5 RNA 1
RNA 2: B5 RNA 2 with U27G, A29U, G54U

Residue numbers refer to the chain shown, from its start. Numbers in names are those of the source.

The data set has as its target T1, EsCas13d, nuclease-dead. Description: crRNA (strand 1, pre-loaded); Mg2+; 40 mM Tris-HCl pH 7.5, 150 mM NaCl, 6 mM MgCl2, 1 mM DTT, 0.1% Tween-20, 0.2 mg/ml BSA; 25 C; 10 min per concentration, then washed. The conditions noted are these: tags: His6-TwinStrep-SUMO cleaved; N-terminal SNAP kept (SNAP-Surface 488); label: 3' end held by stalled T7 RNA polymerase.
Usually Kd stands for the concentration at which binding is half-saturated. Read a high Kd as a looser complex. B1 came in with a Kd of 4.9 ± 0.4 nM.
For B2, the Kd came to 14.8 ± 2.5 nM.
The result for B3 reads 66 ± 11 nM; that for B4, 58 ± 6 nM.
As to B5, the Kd was determined as 13 ± 1.7 nM.
To B6 belongs 11.3 ± 2.4 nM.
To B7 belongs 8.5 ± 1.3 nM; to B8, 9 ± 1.4 nM; to B9, 2.71 ± 0.32 nM.
As for B10, the affinity, expressed as Kd, was 14 ± 6 nM.
The result for B11 reads 3.8 ± 0.9 nM; that for B12, 29 ± 4 nM; that for B13, 7.4 ± 2.5 nM.
To B14 belongs 76 ± 19 nM; to B15, 14 ± 5 nM; to B16, 6.5 ± 1.3 nM.
The result for B17 reads around 49 nM; that for B18, 3.6 ± 0.6 nM.
For B19, the Kd stood at 35 ± 9 nM.
To B20 belongs 7.2 ± 1.3 nM.
Turning to B21, the Kd was 17 ± 4 nM.
The result for B22 reads 8.7 ± 0.6 nM; that for B23, 6.1 ± 1.8 nM; that for B24, 5.1 ± 0.5 nM.
B25 registered a Kd of 20.1 ± 3.2 nM.
The result for B26 reads 20 ± 3 nM; that for B27, 17.9 ± 2.3 nM.
The result for B28 reads 4.5 ± 0.7 nM; that for B29, 16.1 ± 1.6 nM; that for B30, 6.1 ± 1.4 nM.
To B31 belongs around 19 nM; to B32, 14.8 ± 1.6 nM; to B33, 14.8 ± 2.7 nM.
For the molecule B34, the Kd stood at 2.9 ± 1 nM.
To B35 belongs 6.1 ± 1.4 nM; to B36, 38 ± 7 nM.
